# Source: the DeepSol protein solubility set
# Experiment: soluble on expression in E. coli; label from the status in PepcDB or PDB records
row,Sequence,soluble on expression in E. coli
1,MIELIDPISKQRLEESPEGLRNENGIVVYPLINGAYRVAASDNYTSNFGLEWNTFQKTQIDKFSGNTVSEERLFAQTNWQKNGLEGETILEVGSGAGRFSQIMLDHTKATLYSVDYSEAVEANYRNNGPHERFKLFQASIYELPFKQASFDRVICLGVLQHTPDFKASVKALVEMVKPGGELVIDFYPIRNVFTKVHGKYLLRPILKRVNHHRLMSLIRNNIDFLISIYTFNRRIGLGVFNRFVPICEIERTLPKGMTPEQLKEWIILDTFDMFSPEYDQPQRLSTVAKWVKEFGMADVDASWVTYHGKLEAPTVRGRKVLEHHHHHH,soluble
2,MIELKHLRTLQALRNTGSLAAAATQLHQTQSALSHQFSDLEQRLGFRLFVRKSQPLRFTTQGEILLQLAEQVLPQIKQALQTCNEPHQTALRIAIECHSCIQWLTPALDNFHKHWPQVTMDFKSGVTFDPQPALQQGELDLVLTSDILPRSGLHYSPMFDFEVRLVLAPDHPLANKDRIEPEDLAPEVLMIYPVQRQRLDVWRHFLQPAGVSPSSKNVDNTLLLIQMVSARMGIAALPHWVVESFERQGLVVTKTLGEGLWSRLYAAVRDGEQRQPVTEAFIRSARQHACDHLPFVKDAVRSNAGVPTAKPLSPQLQ,not soluble
3,MIEQCWSEIQEEQSPTSQIGQLRVQGLRDKRVIVEYIPLILKTFLLSKTSGVGPLIIPVRCFTCGKVIGDKYYEFKRRVEAGEDPEKVLDDLGLERYCCRRMLLSHVELIDDIMHYKVY,soluble
4,MIERLLEIKKIRADRADKAVQRQEYRVANVAAELQKAERSVADYHVWRQEEEERRFAKAKQQTVLLKELETLRQEIALLREREAELKQRVAEVKVTLEQERTLLKQKQQEALQAHKTKEKFVQLQQQEIAEQSRQQQYQEELEQEEFRTVDIIAAALEHHHHHH,soluble
5,MIFAYNKEHVGDVLLVIVADDQGAENQVKRVGDVARVSLVEAPETVVAWNIFNASALLGDINGTGQVTLTDEQIEKVNTAIKDAGFSETLEKDDTPKIVVGFVKSCKKHPDSDHLSITQTEVDNGEILQIVCGAPNIKAGQKVVVAKPGAMMPDGLMIWPGVLRGEESFGMICSAKELRLPNAPAKKGILELPFDAEVGSAFAVGE,not soluble
6,MIFHDVVESDLHDWECDDDYVCKFCTVRVNNWKIEIYQLWHYFFFLKDVVGVIVRKLNIAIDRDYTCEGLHVAGLIGYDYDKVEEYTGMCTICKLGDCGGMCRRVVEHCKKCGPIQEGVFETPFEKPHHFESLEITSFTIDCLLYGNRFRPTLVNFKNAPITVDSLSINAPSSGIPKVFLSAMMISKWKLLILKTCEDSPYAMEELQLSLTGKMLEEMSNNDYKVKHFRKCFPTKKMSIKILSQIENIQDIRKLCIQEKNLDLAIDIICDKSLLLKFWVSQKNTRGSFWKMKML,not soluble
7,MIFLSFKKSFKNITIEGKFTFEKGFNVILGPSGAGKSTVIKVMCGIEKPDEGFMKCCDEVFFDTKKGVFLPPQKRRLGVVFQSHNLFPHMTVRENIEFALKKAKEPQFTVEELLEKFNLKGHENKYPGELSGGQRQRVAVIRAIVFNPRAVLMDEPFSSLDFKTKLSIMEFIKSVHIEKPVIIVTHDLFEALYLGQKFFLMDNGKKVKEGGKEVLKEYVDLEKIKKFLS,soluble
8,MIFMFRKVLFPTDFSEGAYRAVEVFEKRNKMEVGEVILLHVIDEGTLEELMDGYSFFYDNAEIELKDIKEKLKEEASRKLQEKAEEVKRAFRAKNVRTIIRFGIPWDEIVKVAEEENVSLIILPSRGKLSLSHEFLGSTVMRVLRKTKKPVLIIKEVDENELAKTKGTSG,soluble
9,MIFTTQVKYTYDTLSTFPEDMPSREGFTLISDHFGAGMLAPMEVVVNSKESMKSSLENVNGVASVTGPERSKGYQKYTLILKDNPYSNEAMDVVPKVRAAADKGNDVYIAGQTATQYDDRAVTEHDEKVIIPLEHHHHHH,soluble
10,MIGGSGRFLVNLESLNGVESIGNLTKHRTAPVVLKTSTGYLVRYVPVISGEALAHAYQASLVDIAKKEGLPVGNLSSQYEFIKFSTDEALKIEGIKEPKDYNDARRFEVEVMLKDVIADVGGFMYAGSAPVRRTSRIKLGYMIPALRGDEIPAQLEAQFHVRFSNKPVKGSQAIFNVEVSSALYTFSFELDEDLIAVPSTVGEKVKGEEELERQKARRVDSAIKALYSLLAGNFGGKRSRFLPSMKLMSLVVVKTDFPFIPEPGHDDSYIKTTVMRLEKAKSVLNGNVAKVYVINNEGIEVGEGATVLSSVEDLVAKLKEK,not soluble
11,MIGPENCNSVSEPIAYVIILAGGRSSRMGYDKAQVMVDGRRLIDLCLESIASVHAHPIVVSGQDLQLTAAVTQVMEEPAFGGPVAGIAAGMRCCDTKAGLIGVIAVDAPRSGNYLNQLRRVVLTHPEVGVAHAVVEGYDQPLLAVWRYEALTQALHALGSPRNVAAKRLLRSATTPVIAVPVDSSARDYDTVAELSALGRVRLRLEHHHHHH,not soluble
12,MIGQTNLFDDVLKQDERFVIVVQALEEKNGQLLKRTLREYPGLNHKQMNDLFTHLKELFSEESFAENQSAFSITVYTNLDYTADQIYAHVKRFRGKHDWTQTAKLEHHHHHH,soluble
13,MIHAARSLAGSRAGPLLALLLLGLATARAEPVDGLPLRADGDGRWSLAAGRYAGNFVIDRPLHLRCEAGAELDGGGHGSLLTLTSPGITVEGCRLRNWGRNLTELDAAIFVGKAASGAVIRGNDLRGAGFGVWLDATVGAQVLDNRIEGDESVRSQDRGNGIHLYAVKDALVRGNRVSHTRDGVYIDTSNDSSIEANRFEELRYGVHYMFTHNSRVTDNLTRRTRTGYALMQSRKLTVTGNRSIDDENYGILMNYITYSTLAGNRVEGVRSGSTGDAMISGAEGKALFIYNSLFNRIEGNSFADSALGIHLTAGSEDNRIAGNAFIGNRQQVKYVASREQEWSADGRGNYWSDYLGWDRDDDGLGDVAYEPNDNVDRLIWLYPQVRLLLNSPSIELLRWVQRAFPVVRSPGVRDSHPLMRMPAAEPRPLEHHHHHH,not soluble
14,MIHDYHWRRGKRRKLIVMMETRMMIIMMTIKPPHDIYREQQNHHDDETKRSTKHCVTATHPWPRPAASCFRCPLRGGHHRRRPACALPHGWSVMNSCSLEHHHHHH,not soluble
15,MIHQFHSEQQFRSLGMCVVSTFGSGRACTFIGALYAIHQLNNGVEPNIFEIMKTIKQQRPGAIESFPQYSGVYAIVLDYISRKRGGKSDPVNKYINRFLADLTEILPACSTLPVMNPSTELH,not soluble
16,MIHSLFLINSSGDIFLEKHWKSVVSRSVCDYFFEAQERATEAENVPPVIPTPHHYLLSVYRHKIFFVAVIQTEVPPLFVIEFLHRVVDTFQDYFGVCSEPVIKDNVVVVYEVLEEMLDNGFPLATESNILKELIKPPTILRTVVNTITGSTNVGDQLPTGQLSVVPWRRTGVKYTNNEAYFDVVEEIDAIIDKSGSTVTAEIQGVIDACVKLTGMPDLTLSFMNPRLLDDVSFHPCVRFKRWESERILSFIPPDGNFRLLAYHVSAQNLVAIPVYVKHSISFRDSSSLGRFEITVGPKQTMGKTIEGVIVTSQMPKGVLNMSLTPSQGTHTFDPVTKMLSWDVGKINPQKLPSLKGTMGLQVGASKPDENPTINLQFKIQQLAISGLKVNRLDMYGEKYKPFKGIKYMTKAGKFQVRT,not soluble
17,MIIILRYNKQVFYKYKGDSVMRNRTSVMRKRQMQEVTAKRTKLGKIAMTQKLEATEKQFIVTQGQPCQTQLAEGKFLSYQYNDQIFVHGGRCIELVDSNIVSTAHASLLITILLEGKLSFGYDDLQFDLDASDTPQGVVVNLIHPANFRRSLIENNQINKINILVKPQWLEYRSEESCCSTAFFETHQAFYHLELNQALTELATELTNRDTPHRFQDKLEIESLIYQILFHATQQMPQDFCPQNTNSYRDK,not soluble
18,MIITDVEVRVFRTTTRRHSDSAGHAHPGPAHQVEQAMLTVRTEDGQEGHSFTAPEIVRPHVIEKFVKKVLIGEDHRDRERLWQDLAHWQRGSAAQLTDRTLAVVDCALWDLAGRSLGQPVYKLIGGYRDKVLAYGSIMCGDELEGGLATPEDYGRFAETLVKRGYKGIKLHTWMPPVSWAPDVKMDLKACAAVREAVGPDIRLMIDAFHWYSRTDALALGRGLEKLGFDWIEEPMDEQSLSSYKWLSDNLDIPVVGPESAAGKHWHRAEWIKAGACDILRTGVNDVGGITPALKTMHLAEAFGMECEVHGNTAMNLHVVAATKNCRWYERGLLHPFLEYDDGHDYLKSLSDPMDRDGFVHVPDRPGLGEDIDFTFIDNNRVR,soluble
19,MIITTSRKPSQRTRSLVNDLARVFNFKILNRGKIPLSELIENKDDMIIVEELKGNPGRLKIFNFENNKILSMNLSLKLQREVSGKAFKNSGKLGSKFDKNTEHLKEFFFEYLFKKLSNYKEENFEVVITFKTVDESTFYIEVHKGSENMGPSLKIKTVKILDIELEHHHHHH,not soluble
20,MIIVHLCGGLGNQMFQYAAGLAAAHRIGSEVKFDTHWFDATCLHQGLELRRVFGLELPEPSSKDLRKVLGACVHPAVRRLLAGHFLHGLRPKSLVIQPHFHYWTGFEHLPDNVYLEGYWQSERYFSNIADIIRQQFRFVEPLDPHNAALMDEMQSGVSVSLHIRRGDYFNNPQMRRVHGVDLSEYYPAAVATMIEKTNAERFYVFSDDPQWVLEHLKLPVSYTVVDHNRGAASYRDMQLMSACRHHIIANSTFSWWGAWLNPRPDKVVIAPRHWFNVDVFDTRDLYCPGWIVLLEHHHHHH,not soluble
21,MIKATDRKLVVGLEIGTAKVAALVGEVLPDGMVNIIGVGSCPSRGMDKGGVNDLESVVKCVQRAIDQAELMADCQISSVYLALSGKHISCQNEIGMVPISEEEVTQEDVENVVHTAKSVRVRDEHRVLHVIPQEYAIDYQEGIKNPVGLSGVRMQAKVHLITCHNDMAKNIVKAVERCGLKVDQLIFAGLAASYSVLTEDERELGVCVVDIGGGTMDIAVYTGGALRHTKVIPYAGNVVTSDIAYAFGTPPSDAEAIKVRHGCALGSIVGKDESVEVPSVGGRPPRSLQRQTLAEVIEPRYTELLNLVNEEILQLQEQLRQQGVKHHLAAGIVLTGGAAQIEGLAACAQRVFHTQVRIGAPLNITGLTDYAQEPYYSTAVGLLHYGKESHLNGEAEVEKRVTASVGSWIKRLNSWLRKEF,not soluble
22,MIKILDASAFIHGYNPSIEDGEHYTTNGIVSEVVSKEDIVKLAIEYGKLKILDPKPETIEKVVKTSIETGDTISNNDIEILALAIDLGGTLYTDDYGLQNVSKKLKINYENIVSAGSKDDFVWKKICKGCKKMYPINYLDEECEVCGSPLYRKMVKNRLKKGKKFYDKKKKPKKLFLEHHHHHH,soluble
23,MIKKAFCMQVYPDQHAEYQRRHEKLWPEMRQMLKEHGAIKYQIFLNPETSTLFGYLEIEDEARWEQIALTPINQKWWNYMEDIMETNPDCSPMTAELKKVFEL,not soluble
24,MIKLRMPAGGERYIDGKSVYKLYLMIKQHMNGKYDVIKYNWCMRVSDAAYQKRRDKYFFQKLSEKYKLKELALIFISNLVANQDAWIGDISDADALVFYREYIGRLKQIKFKFEEDIRNIYYFSKKVEVSAFKEIFEYNPKVQSSYIFKLLQSNIISFETFILLDSFLNIIDKHDEQTDNLVWNNYSIKLKAYRKILNIDSQKAKNVFIETVKSCKY,soluble
25,MIKLSNITKVFHQGTRTIQALNNVSLHVPAGQIYGVIGASGAGKSTLIRCVNLLERPTEGSVLVDGQELTTLSESELTKARRQIGMIFQHFNLLSSRTVFGNVALPLELDNTPKDEVKRRVTELLSLVGLGDKHDSYPSNLSGGQKQRVAIARALASNPKVLLCDEATSALDPATTRSILELLKDINRRLGLTILLITHEMDVVKRICDCVAVISNGELIEQDTVSEVFSHPKTPLAQKFIQSTLHLDIPEDYQERLQAEPFTDCVPMLRLEFTGQSVDAPLLSETARRFNVNNNIISAQMDYAGGVKFGIMLTEMHGTQQDTQAAIAWLQEHHVKVEVLGYV,soluble
